Measurements from publication PMC7811519, “Unusual DNA-binding properties of the Arabidopsis thaliana WRKY50 transcription factor at target gene promoters”.

Tests used:
WRKY50BD [1] = target: T1, WRKY50BD (Arabidopsis thaliana Col-0, UniProt Q8VWQ5 86-173); assay: competition EMSA; 100-fold excess vs S15 probe; EMSA with 4-5 ug recombinant protein, 32P probe, 100-fold molar excess competitor; binding buffer, salt, pH and temperature not given (cites Kanofsky et al. 2018); settings: tags: His tag (pQE-30, Ni purification; tag not spelled out)
WRKY50BD [2] = target: T1, WRKY50BD; assay: competition EMSA; 100-fold excess vs S21 probe; EMSA with 4-5 ug recombinant protein, 32P probe, 100-fold molar excess competitor; binding buffer, salt, pH and temperature not given (cites Kanofsky et al. 2018); settings: tags: His tag (pQE-30, Ni purification; tag not spelled out)
WRKY50BD [3] = target: T1, WRKY50BD; assay: competition EMSA; 100-fold excess vs S24 probe; EMSA with 4-5 ug recombinant protein, 32P probe, 100-fold molar excess competitor; binding buffer, salt, pH and temperature not given (cites Kanofsky et al. 2018); settings: tags: His tag (pQE-30, Ni purification; tag not spelled out)
WRKY50BD [4] = target: T1, WRKY50BD; assay: EMSA; EMSA with 4-5 ug recombinant protein, 32P probe, 100-fold molar excess competitor; binding buffer, salt, pH and temperature not given (cites Kanofsky et al. 2018); settings: tags: His tag (pQE-30, Ni purification; tag not spelled out), label: 32P end label (as probe)
WRKY50BD [5] = target: T1, WRKY50BD; assay: competition EMSA; 100-fold excess vs S22 probe; EMSA with 4-5 ug recombinant protein, 32P probe, 100-fold molar excess competitor; binding buffer, salt, pH and temperature not given (cites Kanofsky et al. 2018); settings: tags: His tag (pQE-30, Ni purification; tag not spelled out)
WRKY50 full length = WRKY50 full length (Arabidopsis thaliana Col-0, UniProt Q8VWQ5 1-173); assay: EMSA; EMSA with 4-5 ug recombinant protein, 32P probe, 100-fold molar excess competitor; binding buffer, salt, pH and temperature not given (cites Kanofsky et al. 2018); settings: label: 32P end label (as probe)
Chain of WRKY50 full length (Q8VWQ5 whole entry): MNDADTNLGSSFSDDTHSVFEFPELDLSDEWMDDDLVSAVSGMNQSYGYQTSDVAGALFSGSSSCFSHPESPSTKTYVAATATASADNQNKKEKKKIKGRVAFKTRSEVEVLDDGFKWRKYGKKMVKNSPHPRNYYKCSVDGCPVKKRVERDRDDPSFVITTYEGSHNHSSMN

T1 sequence (Q8VWQ5 86-173): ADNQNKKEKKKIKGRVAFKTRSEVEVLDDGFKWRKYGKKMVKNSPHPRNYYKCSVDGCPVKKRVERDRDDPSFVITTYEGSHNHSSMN

B1: S15mut4 (dsDNA)
DNA 1: AGGACTTTTCACCAGTTGGACTTTGGGATTGTTGG
DNA 2: CCAACAATCCCAAAGTCCAACTGGTGAAAAGTCCT
WRKY50BD [1]
  binding result: binds

B2: S21mut1 (dsDNA)
DNA 1: TTTATGTCCAGTATTTGTCATATAG
DNA 2: CTATATGACAAATACTGGACATAAA
WRKY50BD [2]
  binding result: no binding

B3: S24mut7 (dsDNA)
DNA 1: TAACTGGCATGTTAAGTCCCTTAAATTCACCAGTT
DNA 2: AACTGGTGAATTTAAGGGACTTAACATGCCAGTTA
WRKY50BD [3]
  binding result: no binding

B4: S22 (CRM2-WRKY30) (dsDNA)
DNA 1: GAGAGAGATAGTTTGACTTTTTGACTGAAGAACGA
DNA 2: TCGTTCTTCAGTCAAAAAGTCAAACTATCTCTCTC
WRKY50BD [4]
  binding result: binds

B5: S22mut5 (dsDNA)
DNA 1: GAGAGAGATAGTTTGACTCCTTGACTGAAGAACGA
DNA 2: TCGTTCTTCAGTCAAGGAGTCAAACTATCTCTCTC
WRKY50BD [5]
  binding result: no binding

B6: S15mut2 (dsDNA)
DNA 1: AGGACTTTTTCTTCACCAGACTTTGAAGCCACCAA
DNA 2: TTGGTGGCTTCAAAGTCTGGTGAAGAAAAAGTCCT
WRKY50BD [1]
  binding result: binds

B7: S15 (CRM-DJ1E) (dsDNA)
DNA 1: AGGACTTTTCACCAGTTGGACTTTGAAGCCACCAA
DNA 2: TTGGTGGCTTCAAAGTCCAACTGGTGAAAAGTCCT
WRKY50BD [4]
  binding result: binds

B8: S22mut3 (dsDNA)
DNA 1: GAGAGAGATAGTCCAGTCTTCCAGTCGAAGAACGA
DNA 2: TCGTTCTTCGACTGGAAGACTGGACTATCTCTCTC
WRKY50BD [5]
  binding result: no binding

B9: S15mut13 (dsDNA)
DNA 1: AGAGTCCCCCACCAGTTGAGTCCCAAAGCCACCAA
DNA 2: TTGGTGGCTTTGGGACTCAACTGGTGGGGGACTCT
WRKY50BD [1]
  binding result: no binding

B10: S22mut4 (dsDNA)
DNA 1: GAGAGAGATAGTTTAGTCCCCCGACTGAAGAACGA
DNA 2: TCGTTCTTCAGTCGGGGGACTAAACTATCTCTCTC
WRKY50BD [5]
  binding result: no binding

B11: S24mut9 (dsDNA)
DNA 1: TGGTCAGCATGTTGGACTTTCCGGGCCTGTTGACC
DNA 2: GGTCAACAGGCCCGGAAAGTCCAACATGCTGACCA
WRKY50BD [3]
  binding result: binds

B12: S24 (CRM1-WRKY30) (dsDNA)
DNA 1: TGGTCAGCATGTTGGACTTTCCAAATTCATTGACC
DNA 2: GGTCAATGAATTTGGAAAGTCCAACATGCTGACCA
WRKY50BD [4]
  binding result: binds

B13: S15mut3 (dsDNA)
DNA 1: AGGACTTTTCACCAGTTGAGTCCCAAAGCCACCAA
DNA 2: TTGGTGGCTTTGGGACTCAACTGGTGAAAAGTCCT
WRKY50BD [1]
  binding result: binds

B14: S21mut5 (dsDNA)
DNA 1: TTTATGTTTGACTCCCGTCATATAG
DNA 2: CTATATGACGGGAGTCAAACATAAA
WRKY50BD [2]
  binding result: no binding

B15: S21mut4 (dsDNA)
DNA 1: TTTATGTTTAGTCCCTGTCATATAG
DNA 2: CTATATGACAGGGACTAAACATAAA
WRKY50BD [2]
  binding result: no binding

B16: S15mut1 (dsDNA)
DNA 1: AGAGTCCCCCACCAGTTGGACTTTGAAGCCACCAA
DNA 2: TTGGTGGCTTCAAAGTCCAACTGGTGGGGGACTCT
WRKY50BD [1]
  binding result: binds

B17: S21mut2 (dsDNA)
DNA 1: TTTATGTTTGACTTTTACTGTATAG
DNA 2: CTATACAGTAAAAGTCAAACATAAA
WRKY50BD [2]
  binding result: binds

B18: S24mut8 (dsDNA)
DNA 1: TGGTCAATGCACCGGACTTTCCAAATTCATTGACC
DNA 2: GGTCAATGAATTTGGAAAGTCCGGTGCATTGACCA
WRKY50BD [3]
  binding result: binds

B19: S21mut3 (dsDNA)
DNA 1: TTTATGTCCAGTATTTACTGTATAG
DNA 2: CTATACAGTAAATACTGGACATAAA
WRKY50BD [2]
  binding result: no binding

B20: S22mut2 (dsDNA)
DNA 1: GAGAGAGATAGTCCAGTCTTTTGACTGAAGAACGA
DNA 2: TCGTTCTTCAGTCAAAAGACTGGACTATCTCTCTC
WRKY50BD [5]
  binding result: no binding

B21: S24mut2 (dsDNA)
DNA 1: TAACTGGCATGTTGGACTTTCCAAATTCACCAGTT
DNA 2: AACTGGTGAATTTGGAAAGTCCAACATGCCAGTTA
WRKY50BD [3]
  binding result: binds

B22: S21 (CRM-ATBBE4) (dsDNA)
DNA 1: TTTATGTTTGACTTTTGTCATATAG
DNA 2: CTATATGACAAAAGTCAAACATAAA
WRKY50 full length
  binding result: no binding
WRKY50BD [4]
  binding result: binds
